Changes are numbered by the printed parent chain. Names and notes keep the numbering of the source.
B1: H183/L072 VH G52cP (antibody, name in Kabat numbering, V domains shown)
VH: QVQLVESGGGLVQPGRSLRLSCAASGFTFSNAWMHWVRQAPGKGLEWVAQIKDKPNAYAAYYAPSVKGRFTISRDDSKNSIYLQMNSLKTEDTAVYYCHYVHYASASTVLPAFGVDAWGQGTTVTVSS
VL: DIVMTQSPLSLPVTPGEPASISCQASQELVHMNRNTYLHWYQQKPGQAPRLLIYKVSNRFPGVPDRFSGSGSGTDFTLKISRVEAEDVGVYYCAQGTSVPFTFGQGTKLEIK
B2: H183/L072 VH G52cQ (antibody, name in Kabat numbering, V domains shown)
VH: B1 VH with P55Q
VL: B1 VL
B3: H183/L072 VH G52cR (antibody, name in Kabat numbering, V domains shown)
VH: B1 VH with P55R
VL: B1 VL
B4: H183/L072 VH G52cS (antibody, name in Kabat numbering, V domains shown)
VH: B1 VH with P55S
VL: B1 VL
B5: H183/L072 VH G52cT (antibody, name in Kabat numbering, V domains shown)
VH: B1 VH with P55T
VL: B1 VL
B6: H183/L072 VH G52cV (antibody, name in Kabat numbering, V domains shown)
VH: B1 VH with P55V
VL: B1 VL
B7: H183/L072 VH G52cW (antibody, name in Kabat numbering, V domains shown)
VH: B1 VH with P55W
VL: B1 VL
B8: H183/L072 VH G52cY (antibody, name in Kabat numbering, V domains shown)
VH: B1 VH with P55Y
VL: B1 VL
B9: H183/L072 VH G65A (antibody, name in Kabat numbering, V domains shown)
VH: B1 VH with P55G, G68A
VL: B1 VL
B10: H183/L072 VH G65I (antibody, name in Kabat numbering, V domains shown)
VH: B1 VH with P55G, G68I
VL: B1 VL
B11: H183/L072 VH G65L (antibody, name in Kabat numbering, V domains shown)
VH: B1 VH with P55G, G68L
VL: B1 VL
B12: H183/L072 VH G65M (antibody, name in Kabat numbering, V domains shown)
VH: B1 VH with P55G, G68M
VL: B1 VL
B13: H183/L072 VH G65P (antibody, name in Kabat numbering, V domains shown)
VH: B1 VH with P55G, G68P
VL: B1 VL
B14: H183/L072 VH G100hA (antibody, name in Kabat numbering, V domains shown)
VH: B1 VH with P55G, G114A
VL: B1 VL
B15: H183/L072 VH G100hI (antibody, name in Kabat numbering, V domains shown)
VH: B1 VH with P55G, G114I
VL: B1 VL
B16: H183/L072 VH G100hL (antibody, name in Kabat numbering, V domains shown)
VH: B1 VH with P55G, G114L
VL: B1 VL
B17: H183/L072 VH G100hM (antibody, name in Kabat numbering, V domains shown)
VH: B1 VH with P55G, G114M
VL: B1 VL
B18: H183/L072 VH H35F (antibody, name in Kabat numbering, V domains shown)
VH: B1 VH with H35F, P55G
VL: B1 VL
B19: H183/L072 VH H35N (antibody, name in Kabat numbering, V domains shown)
VH: B1 VH with H35N, P55G
VL: B1 VL
B20: H183/L072 VH H35T (antibody, name in Kabat numbering, V domains shown)
VH: B1 VH with H35T, P55G
VL: B1 VL
B21: H183/L072 VH H35V (antibody, name in Kabat numbering, V domains shown)
VH: B1 VH with H35V, P55G
VL: B1 VL
B22: H183/L072 VH H35Y (antibody, name in Kabat numbering, V domains shown)
VH: B1 VH with H35Y, P55G
VL: B1 VL
B23: H183/L072 VH H93A (antibody, name in Kabat numbering, V domains shown)
VH: B1 VH with P55G, H99A
VL: B1 VL
B24: H183/L072 VH H93I (antibody, name in Kabat numbering, V domains shown)
VH: B1 VH with P55G, H99I
VL: B1 VL
B25: H183/L072 VH H93L (antibody, name in Kabat numbering, V domains shown)
VH: B1 VH with P55G, H99L
VL: B1 VL
B26: H183/L072 VH H93M (antibody, name in Kabat numbering, V domains shown)
VH: B1 VH with P55G, H99M
VL: B1 VL
B27: H183/L072 VH H93P (antibody, name in Kabat numbering, V domains shown)
VH: B1 VH with P55G, H99P
VL: B1 VL
B28: H183/L072 VH H96A (antibody, name in Kabat numbering, V domains shown)
VH: B1 VH with P55G, H102A
VL: B1 VL
B29: H183/L072 VH H96I (antibody, name in Kabat numbering, V domains shown)
VH: B1 VH with P55G, H102I
VL: B1 VL
B30: H183/L072 VH H96L (antibody, name in Kabat numbering, V domains shown)
VH: B1 VH with P55G, H102L
VL: B1 VL
B31: H183/L072 VH H96M (antibody, name in Kabat numbering, V domains shown)
VH: B1 VH with P55G, H102M
VL: B1 VL
B32: H183/L072 VH H96P (antibody, name in Kabat numbering, V domains shown)
VH: B1 VH with P55G, H102P
VL: B1 VL
B33: H183/L072 VH I51A (antibody, name in Kabat numbering, V domains shown)
VH: B1 VH with I51A, P55G
VL: B1 VL

Molecular target: T1, Human CD137 ECD (human)
T1 construct: also called 4-1BB
T1 sequence (chain, as listed by the source limits assumed): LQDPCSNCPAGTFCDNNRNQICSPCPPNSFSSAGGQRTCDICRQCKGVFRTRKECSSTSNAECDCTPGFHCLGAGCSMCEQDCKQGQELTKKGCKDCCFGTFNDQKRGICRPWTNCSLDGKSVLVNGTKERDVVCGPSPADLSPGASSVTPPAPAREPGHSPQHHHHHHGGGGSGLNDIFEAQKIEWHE
Test: single mutant vs template dBBDu183H

Binder	fold change of affinity
B1	0.4 fold
B2	0.7 fold
B3	0.2 fold
B4	1.3 fold
B5	1 fold
B6	0.7 fold
B7	2 fold
B8	2 fold
B9	1.2 fold
B10	1.3 fold
B11	1.3 fold
B12	1.2 fold
B13	1.3 fold
B14	0 fold
B15	0 fold
B16	0 fold
B17	0 fold

Binder	fold change of affinity
B18	4.3 fold
B19	0.4 fold
B20	0.5 fold
B21	0.5 fold
B22	3.9 fold
B23	0 fold
B24	0 fold
B25	0 fold
B26	0 fold
B27	0 fold
B28	0 fold
B29	0.5 fold
B30	0.8 fold
B31	1.4 fold
B32	0 fold
B33	0.1 fold

Source: patent publication US20210388087A1 (Chugai, published 2021)
